Values belong to the binder of their own block, whether it stands above or below them.
B3: LILRB2 (c-terminally biotinylated, BPS Bioscience #100335) (receptor, human, UniProt Q8N423 22-460, looked up)
chain: QTGTIPKPTLWAEPDSVITQGSPVTLSCQGSLEAQEYRLYREKKSASWITRIRPELVKNGQFHIPSITWEHTGRYGCQYYSRARWSELSDPLVLVMTGAYPKPTLSAQPSPVVTSGGRVTLQCESQVAFGGFILCKEGEDEHPQCLNSQPHARGSSRAIFSVGPVSPNRRWSHRCYGYDLNSPYVWSSPSDLLELLVPGVSKKPSLSVQPGPVMAPGESLTLQCVSDVGYDRFVLYKEGERDLRQLPGRQPQAGLSQANFTLGPVSRSYGGQYRCYGAHNLSSECSAPSDPLDILITGQIRGTPFISVQPGPTVASGENVTLLCQSWRQFHTFLLTKAGAADAPLRLRSIHEYPKYQAEFPMSPVTSAHAGTYRCYGSLNSDPYLLSHPSEPLELVVSGPSMGSSPPPTGPISTPGPEDQPLTPTGSDPQSGLGRHLGV
modifications: C-terminal biotin
notes: Bought biotinylated protein; also called human LILRB2; biotinylated LILRB2

Legend:
[1] = molecular target: T1, HLA-B57(A46E/V97R).β2m (HLA-B57 A46E/V97R IgG4 fusion protein associated with β2m) (human; homo sapiens); assay: BLI
T1 construct: Complex secreted from CHO cells co-transfected with the fusion protein and β2m; also called iosH2; IosH2

[2] = molecular target: B3; assay: BLI, biotinylated LILRB2 sensors, ANGPTL7 titrated with or without prior incubation of the sensor with iosH2
[3] = molecular target: T2, ANGPTL2 (R&D systems, 9795-AN) (UniProt Q9UKU9 23-493, limits assumed); assay: BLI, biotinylated LILRB2 sensors, ANGPTL2 titrated with or without prior incubation of the sensor with iosH2
T2 construct: also called ANGTPL2
T2 sequence (looked up): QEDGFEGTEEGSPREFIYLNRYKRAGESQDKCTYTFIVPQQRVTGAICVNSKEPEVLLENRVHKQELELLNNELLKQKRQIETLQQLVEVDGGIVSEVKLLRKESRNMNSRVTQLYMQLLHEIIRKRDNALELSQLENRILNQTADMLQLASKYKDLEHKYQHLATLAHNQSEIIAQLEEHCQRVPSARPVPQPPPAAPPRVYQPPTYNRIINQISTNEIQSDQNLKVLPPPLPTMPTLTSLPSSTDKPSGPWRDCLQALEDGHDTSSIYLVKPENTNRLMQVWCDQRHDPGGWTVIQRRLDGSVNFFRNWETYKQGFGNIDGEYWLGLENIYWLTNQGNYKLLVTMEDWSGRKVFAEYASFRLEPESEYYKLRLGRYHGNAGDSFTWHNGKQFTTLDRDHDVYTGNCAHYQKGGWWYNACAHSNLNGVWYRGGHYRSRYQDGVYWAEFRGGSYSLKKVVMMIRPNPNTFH

binding result [1]: binds
B1: human LILRB1 (receptor, UniProt Q8NHL6 24-458, looked up)
chain: GHLPKPTLWAEPGSVITQGSPVTLRCQGGQETQEYRLYREKKTALWITRIPQELVKKGQFPIPSITWEHAGRYRCYYGSDTAGRSESSDPLELVVTGAYIKPTLSAQPSPVVNSGGNVILQCDSQVAFDGFSLCKEGEDEHPQCLNSQPHARGSSRAIFSVGPVSPSRRWWYRCYAYDSNSPYEWSLPSDLLELLVLGVSKKPSLSVQPGPIVAPEETLTLQCGSDAGYNRFVLYKDGERDFLQLAGAQPQAGLSQANFTLGPVSRSYGGQYRCYGAHNLSSEWSAPSDPLDILIAGQFYDRVSLSVQPGPTVASGENVTLLCQSQGWMQTFLLTKEGAADDPWRLRSTYQSQKYQAEFPMGPVTSAHAGTYRCYGSQSSKPYLLTHPSDPLELVVSGPSGGPSSPTTGPTSTSGPEDQPLTPTGSDPQSGLGRH

binding result [2]: binds
B2: ANGPTL7 (R&D systems, 914-AN) (ligand, UniProt O43827 27-346, looked up)
chain: QKLSKHKTPAQPQLKAANCCEEVKELKAQVANLSSLLSELNKKQERDWVSVVMQVMELESNSKRMESRLTDAESKYSEMNNQIDIMQLQAAQTVTQTSADAIYDCSSLYQKNYRISGVYKLPPDDFLGSPELEVFCDMETSGGGWTIIQRRKSGLVSFYRDWKQYKQGFGSIRGDFWLGNEHIHRLSRQPTRLRVEMEDWEGNLRYAEYSHFVLGNELNSYRLFLGNYTGNVGNDALQYHNNTAFSTKDKDNDNCLDKCAQLRKGGYWYNCCTDSNLNGVYYRLGEHNKHLDGITWYGWHGSTYSLKRVEMKIRPEDFKP

Binder: B3
binding result [3]: binds
